Results: patent publication US20230056815A1 (VIELA BIO, published 2023)

B1: CAT26 antibody (IgG1 TM format) (antibody, V domains shown)
VH: EVQLLESGGGLVQPGGSLRLSCAASGFTFSSYAVSWVRQAPGKGLEWVSAISGSGGSTYYADSVKGRFTISRDNSKNTLYLQMNSLRAEDTAVYYCVKDAYGSSWYFYYFDYWGQGTMVTVSS
VL: QSVLTQPPSASGTPGQRVTISCSGSSSNIGINPVNWYQQLPGTAPKVLIYSDKYRPSGVADRFSGSKSGTSASLAISGLQSEDEADYFCAAWDDSLNGRVFGTGTKLTVL
B2: Dyax3 antibody (IgG1 TM format) (antibody, V domains shown)
VH: EVQLLESGGGLVQPGGSLRLSCAASGFTFSMYEMRWVRQAPGKGLEWVSVIPSGGKTFYADSVKGRFTISRDNSKNTLYLQMNSLRAEDTAVYYCARYSRWFGQLGFYSHYAMDVWSQGTTVTVSS
VL: DIQMTQSPSSLSASVGDRVAITCRASQSIDTYLNWYQQKPGKAPKLLIYAASKLEDGVPSRFSGSGTGTDFTLTIRSLQPEDFASYFCQQSYSSPGITFGPGTKVEIK
notes: also called DTAX3
B3: Dyax5 antibody (IgG1 TM format) (antibody, V domains shown)
VH: EVQLLESGGGLVQPGGSLRLSCAASGFTFSSYIMVWVRQAPGKGLEWVSSIYSSGGSTSYADSVKGRFTISRDNSKNTLYLQMNSLRAEDTAVYYCTRYSRWFGQLGFYSHYAMDVWSQGTTVTVSS
VL: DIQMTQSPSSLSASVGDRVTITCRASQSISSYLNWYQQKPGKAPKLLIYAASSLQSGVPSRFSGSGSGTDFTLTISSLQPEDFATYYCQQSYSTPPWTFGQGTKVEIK
B4: CAT8 antibody (IgG1 TM format) (antibody, V domains shown)
VH: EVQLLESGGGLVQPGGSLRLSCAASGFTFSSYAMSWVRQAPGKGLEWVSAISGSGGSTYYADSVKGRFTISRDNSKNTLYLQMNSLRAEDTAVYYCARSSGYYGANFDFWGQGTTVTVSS
VL: QSVLTQPPSASGTPGQRVAISCSGSSSNIGSGYVYWYQQVPGTAPTLLIHRNNQRPSGVPDRFSGSKSGTSASLAISGLRSEDEADYYCAAWDDSLSGYVFGTGTKVTV
notes: Human antibody from phage display
B5: AM40 (MEDI1116) antibody (antibody, V domains shown)
VH: QVQLVQSGAEVKKPGSSVKVSCKASGGTFSSYALSWVRQAPGQGLEWMGTRPPTSRTASYAQKFQGRVTITVDESTSTGYMELSSLRSEDTAVYYCASNDFVYGSYRFWGQGTTVTVSS
VL: NFMLTQPHSVSESPGKTVTISCTRTSGNIAGYFVQWYQQRPGSSPTTVIYEDYQRPSGVPDRFSGSIDSSSNSASLTISGLKTEDEADYYCQSYDDYRRAAFGGGTKLTVLG
B6: SC4017 antibody (antibody, V domains shown)
VH: QVQLVQSGAEVKKPGSSVKVSCKASGGTFSSYALSWVRQAPGQGLEWMGTRPPTSRTASYAQKFQGRVTITVDESTSTGYMELSSLRSEDTAVYYCASNDFVYGSYRFWGQGTTVTVSS
VL: NFMLTQPHSVSESPGKTVTISCTRTSGWIAGYFVQWYQQRPGSSPTTVIYEDYQRPSGVPDRFSGSIDSSSNSASLTISGLKTEDEADYYCQSYDDYRRAAFGGGTKLTVLG
B7: CAT8 Fab (Fab, V domains shown)
VH: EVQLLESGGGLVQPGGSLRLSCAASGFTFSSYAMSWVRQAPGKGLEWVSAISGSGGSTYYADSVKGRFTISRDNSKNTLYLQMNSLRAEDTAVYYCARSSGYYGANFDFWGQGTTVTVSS
VL: QSVLTQPPSASGTPGQRVAISCSGSSSNIGSGYVYWYQQVPGTAPTLLIHRNNQRPSGVPDRFSGSKSGTSASLAISGLRSEDEADYYCAAWDDSLSGYVFGTGTKVTV
B8: CAT26 Fab (Fab, V domains shown)
VH: EVQLLESGGGLVQPGGSLRLSCAASGFTFSSYAVSWVRQAPGKGLEWVSAISGSGGSTYYADSVKGRFTISRDNSKNTLYLQMNSLRAEDTAVYYCVKDAYGSSWYFYYFDYWGQGTMVTVSS
VL: QSVLTQPPSASGTPGQRVTISCSGSSSNIGINPVNWYQQLPGTAPKVLIYSDKYRPSGVADRFSGSKSGTSASLAISGLQSEDEADYFCAAWDDSLNGRVFGTGTKLTVL
B9: Dyax3 Fab (Fab, V domains shown)
VH: EVQLLESGGGLVQPGGSLRLSCAASGFTFSMYEMRWVRQAPGKGLEWVSVIPSGGKTFYADSVKGRFTISRDNSKNTLYLQMNSLRAEDTAVYYCARYSRWFGQLGFYSHYAMDVWSQGTTVTVSS
VL: DIQMTQSPSSLSASVGDRVAITCRASQSIDTYLNWYQQKPGKAPKLLIYAASKLEDGVPSRFSGSGTGTDFTLTIRSLQPEDFASYFCQQSYSSPGITFGPGTKVEIK
B10: Dyax5 Fab (Fab, V domains shown)
VH: EVQLLESGGGLVQPGGSLRLSCAASGFTFSSYIMVWVRQAPGKGLEWVSSIYSSGGSTSYADSVKGRFTISRDNSKNTLYLQMNSLRAEDTAVYYCTRYSRWFGQLGFYSHYAMDVWSQGTTVTVSS
VL: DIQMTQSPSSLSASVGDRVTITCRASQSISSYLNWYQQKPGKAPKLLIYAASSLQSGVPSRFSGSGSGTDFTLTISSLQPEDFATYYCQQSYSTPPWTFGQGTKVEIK

Columns and labels:
[1] = molecular target: T1, human soluble FLT3L (recombinant huFLT3L) (human, UniProt P49771 27-184); assay: cell-based or functional assay
T1 sequence (looked up): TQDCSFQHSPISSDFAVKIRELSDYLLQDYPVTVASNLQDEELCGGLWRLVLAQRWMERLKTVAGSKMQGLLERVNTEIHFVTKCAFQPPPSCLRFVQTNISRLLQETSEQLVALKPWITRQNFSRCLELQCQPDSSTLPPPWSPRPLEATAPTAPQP

[2] = molecular target: cynomolgus monkey soluble FLT3L (cynomolgus monkey); assay: cell-based or functional assay
[3] = molecular target: T2, cynomolgus monkey FLT3L on CHO cells (cynomolgus monkey); assay: flow cytometry on CHO cells expressing full-length cyno FLT3L, PE anti-hu IgG
T2 construct: whole, on cells; also called cell surface cyno FLT3L
Experimental: (§1) Consistent with this, cell surface binding to human, cyno, and mouse FLT3L was evaluated by transfecting Chinese hamster ovary (CHO) cells with the respective full-length protein for each species. Candidate clones were incubated with FLT3L-expressing cell lines for 1 hour at 4° C. before being washed twice to remove unbound antibody. Cells were then incubated with PE-labeled goat anti-hu IgG secondary detection pAb to quantitate bound antibody which was measured by flow cytometric analysis of PE signal. The huFLT3-Fc construct, on a hu IgG backbone, was used as a positive control reagent for FLT3L expression as it cross reacts with cyno and mouse, in addition to human ligand.
(§2) As differences were apparent in the degree of receptor occupancy for each clone, both EC50 and max occupancy were noted (expressed as percent relative to FLT3-Fc) and taken into account in the final evaluation. Results are shown in Table 4 for human, cyno, and mouse FLT3L expressed in CHO cells.

[4] = molecular target: T3, recombinant human stem cell factor (SCF) (human, UniProt P21583 26-189); assay: ELISA on coated recombinant human SCF
T3 construct: also called huSCF; KIT-ligand
Experimental: (§3) To test this, an ELISA plate was coated with 2 µg of recombinant human SCF or CSF1. After washing, the plate was blocked with 3% milk in Tris-Phosphate Buffered Saline (TPBS) and lead antibodies were added in serial (×2) dilution, starting at 50 µg/ml. After incubation, unbound antibody was removed by washing and bound antibody was detected using anti-human IgG-HRP in combination with TMB substrate for color development. Commercially available goat anti-SCF pAb and mouse anti-CSF1 mAb were used as positive binding controls.

[5] = molecular target: T4, recombinant human colony stimulating factor 1 (CSF1) (human, UniProt P09603 33-190, limits assumed); assay: ELISA on coated recombinant human CSF1
T4 construct: also called huCSF1; huCSF
T4 sequence (looked up): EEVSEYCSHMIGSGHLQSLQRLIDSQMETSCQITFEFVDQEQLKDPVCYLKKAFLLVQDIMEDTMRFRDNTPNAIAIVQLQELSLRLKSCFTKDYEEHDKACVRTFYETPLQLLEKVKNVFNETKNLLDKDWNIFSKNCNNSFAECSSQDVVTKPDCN
Experimental: as §3

mouse FLT3L on CHO cells [6] = molecular target: T5, mouse FLT3L on CHO cells (mouse, UniProt P49772 27-232); assay: flow cytometry on CHO cells expressing mouse FLT3L, anti-hu IgG-PE detection
T5 construct: whole, on cells; also called cell surface mouse FLT3L
T5 sequence (looked up): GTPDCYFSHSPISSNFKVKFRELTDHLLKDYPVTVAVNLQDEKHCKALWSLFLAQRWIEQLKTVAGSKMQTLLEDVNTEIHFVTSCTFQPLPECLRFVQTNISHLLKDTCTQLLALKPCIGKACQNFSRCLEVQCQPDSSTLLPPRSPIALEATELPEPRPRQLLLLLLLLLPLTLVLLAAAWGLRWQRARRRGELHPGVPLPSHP
Experimental: as §1

[7] = molecular target: T6, human FLT3L on the cell surface (human, UniProt P49771 27-235); assay: flow cytometry on CHO cells expressing full-length human FLT3L, PE anti-hu IgG
T6 construct: whole, on cells; The assay field of each row says which cells carried it; also called cell-surface FLT3L; huFLT3L-expressing CHO cells
T6 sequence (looked up): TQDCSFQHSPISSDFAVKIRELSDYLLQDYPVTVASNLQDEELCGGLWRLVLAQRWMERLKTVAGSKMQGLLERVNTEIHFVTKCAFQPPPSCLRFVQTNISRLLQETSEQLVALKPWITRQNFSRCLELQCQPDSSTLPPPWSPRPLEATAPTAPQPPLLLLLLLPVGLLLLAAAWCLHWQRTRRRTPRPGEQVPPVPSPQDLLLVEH
Experimental: as §1, §2

mouse soluble FLT3L = molecular target: T7, mouse soluble FLT3L (mouse, UniProt P49772 27-189); assay: cell-based or functional assay
T7 sequence (looked up): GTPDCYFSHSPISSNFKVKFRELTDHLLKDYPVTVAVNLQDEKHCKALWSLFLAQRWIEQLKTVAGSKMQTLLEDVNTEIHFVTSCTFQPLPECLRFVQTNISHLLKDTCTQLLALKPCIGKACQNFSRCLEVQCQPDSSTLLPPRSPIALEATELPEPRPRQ

[8] = molecular target: T1, human soluble FLT3L (recombinant …); assay: cell-based or functional assay; remark: listed apart in the source
mouse FLT3L on CHO cells [9] = molecular target: T5, mouse FLT3L on CHO cells; assay: flow cytometry on CHO cells expressing full-length mouse FLT3L, PE anti-hu IgG
Experimental: as §1, §2

[10] = molecular target: T1, human soluble FLT3L (recombinant …); assay: Biacore
[11] = molecular target: T8, cynomolgus monkey soluble FLT3L (cynomolgus monkey); assay: Biacore
T8 construct: extracellular domain; also called cyno sFLT3L; cyno FLT3L

[12] = molecular target: T1, human soluble FLT3L (recombinant …); assay: Biacore, Fab
[13] = molecular target: T1, human soluble FLT3L (recombinant …); assay: Biacore, Fab, kinetic (koff/kon)

T3 sequence (P21583 26-189 limits assumed): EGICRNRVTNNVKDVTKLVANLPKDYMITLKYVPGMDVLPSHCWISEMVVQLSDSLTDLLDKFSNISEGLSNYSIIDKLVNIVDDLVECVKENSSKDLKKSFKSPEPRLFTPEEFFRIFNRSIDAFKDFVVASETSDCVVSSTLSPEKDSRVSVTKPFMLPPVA

| Binder | IC50 (nM), inhibition of FLT3 downregulation on RS4;11 cells [1] | IC50 (nM), inhibition of FLT3 downregulation on RS4;11 cells [2] | EC50 [3] | maximum occupancy (% relative to FLT3-Fc) [3] | EC50 [7] | maximum occupancy (% relative to FLT3-Fc) [7] | koff [12] | kon [12] | Kd [13] | other results |
| --- | --- | --- | --- | --- | --- | --- | --- | --- | --- | --- |
| B1 | 618 nM | 2580 nM | 1.1 nM | 96% | 0.19 nM | 46% | – | – | – | binding result [4]: no binding (tested: about 0.3 uM); binding result [5]: no binding (tested: about 0.3 uM); binding result (mouse FLT3L on CHO cells [6]): no binding (tested: x = -7.2 (x axis without title or unit)) |
| B2 | 54.8 nM | 3070 nM | 1.8 nM | 35% | 0.27 nM | 33% | – | – | – | IC50 (nM), inhibition of FLT3 downregulation on RS4;11 cells (mouse soluble FLT3L): 1490 nM; IC50 (nM) against 0.476 nM FLT3L, ERK phosphorylation in CD133+ stem cells [8]: 2.4 nM; IC50 (nM) against 0.476 nM FLT3L, MEK phosphorylation in CD133+ stem cells [8]: 93 nM; EC50 (mouse FLT3L on CHO cells [9]): 0.39 nM; maximum occupancy (% relative to FLT3-Fc) (mouse FLT3L on CHO cells [9]): 16% |
| B3 | 245 nM | 6020 nM | – | – | 0.66 nM | 28% | – | – | – | IC50 (nM), inhibition of FLT3 downregulation on RS4;11 cells (mouse soluble FLT3L): 354 nM; IC50 (nM) against 0.476 nM FLT3L, ERK phosphorylation in CD133+ stem cells [8]: 25 nM; EC50 (mouse FLT3L on CHO cells [9]): 0.11 nM; maximum occupancy (% relative to FLT3-Fc) (mouse FLT3L on CHO cells [9]): 51% |
| B4 | 43.5 nM | 3000 nM | 9 nM | 32% | 0.08 nM | 60% | – | – | – | binding result [4]: no binding (tested: about 0.3 uM); binding result [5]: no binding (tested: about 0.3 uM); binding result (mouse FLT3L on CHO cells [6]): no binding (tested: x = -7.2 (x axis without title or unit)) |
| B5 | – | – | – | – | – | – | – | – | – | Kd [10]: 0.17 nM; koff [10]: 0.00018 s⁻¹; kon [10]: 1.09e+06 M⁻¹ s⁻¹; Kd [11]: 0.063 nM; koff [11]: 0.00017 s⁻¹; kon [11]: 2.66e+06 M⁻¹ s⁻¹ |
| B6 | – | – | – | – | – | – | – | – | – | Kd [10]: 0.037 nM; koff [10]: 5e-05 s⁻¹; kon [10]: 1.45e+06 M⁻¹ s⁻¹; Kd [11]: 0.0088 nM; koff [11]: 5e-05 s⁻¹; kon [11]: 5.84e+06 M⁻¹ s⁻¹ |
| B7 | – | – | – | – | – | – | 0.00556 s⁻¹ | 628000 M⁻¹ s⁻¹ | 8.85 nM | – |
| B8 | – | – | – | – | – | – | 0.00084 s⁻¹ | 191000 M⁻¹ s⁻¹ | 4.37 nM | – |
| B9 | – | – | – | – | – | – | 0.00123 s⁻¹ | 66000 M⁻¹ s⁻¹ | 18.7 nM | – |
| B10 | – | – | – | – | – | – | 0.00501 s⁻¹ | 228000 M⁻¹ s⁻¹ | 22 nM | – |
